What all share (test): ITC
The target in assay [1] is T1, LATS1-b (Homo sapiens).
T1 chain: YQGPPPPYPKHL

The target of assay [2] is T2, LATS1-a (Homo sapiens).
T2 chain: NRQPPPPYPLTA

Assay [3] has as its target T3, LATS2 (Homo sapiens).
T3 chain: RRCPPPPYPKHL

Assay [4] concerns the target T4, PTCH1-a (Homo sapiens).
T4 chain: RYSPPPPYSSHS

Assay [5] concerns the target T5, PTCH1-b (Homo sapiens).
T5 chain: EGLWPPPYRPRR

Several values for one entry are separate records, joined by “and”; a condition that tells them apart may be missing. Equal values may be shown once.

In general, Kd refers to the constant that tells how readily two partners part at equilibrium. Low values mean a tighter complex, high ones a looser complex. With ASGPLPDGWEQAMTQDGEIYYINHKNKTTSWLDPRLDPRFAMNQ [YAP-WW2 228-271], the Kd in assay [1] was found to be 33.9 µM; in assay [2], 27 µM; in assay [3], 8.2 µM; in assay [4] it was 45.8 µM.

B1: YAP-WW1-WW2 165-271 (protein)
chain: FEIPDDVPLPAGWEMAKTSSGQRYFLNHIDQTTTWQDPRKAMLSQMNVTAPTSPPVQQNMMNSASGPLPDGWEQAMTQDGEIYYINHKNKTTSWLDPRLDPRFAMNQ
As for B1, the Kd was 16.9 µM in assay [5]; 33.4 µM in assay [2]; 9.2 µM in assay [3]; 47.4 µM and 24.7 µM in assay [4].
Turning to FEIPDDVPLPAGWEMAKTSSGQRYFLNHIDQTTTWQDPRKAMLSQ [YAP-WW1 165-209], the Kd was determined as 3.7 µM in assay [1]; 13.2 µM in assay [5]; 21.5 µM in assay [2]; 7.1 µM in assay [3]; 27.6 µM in assay [4].

The values above are taken from article PMC4301871 (2015).
